Results taken from article PMC3325213 (PLoS Pathogens, 2012).

Molecular target: the molecule itself
Assay: SEC; analytical gel filtration, Superdex-200 10/300GL, 50 mM Tris pH 7, 500 mM NaCl, 5% glycerol; mass against protein standards

B1: Tsi2–H6 (C-terminal hexahistidine-tagged Tsi2) (natural protein)
chain: MNLKPQTLMVAIQCVAARTRELDAQLQNDDPQNAAELEQLLVGYDLAADDLKNAYEQALGQYSGLPPYDRLIEEPAS
notes: source: E. coli BL21 pLysS, purified (HisTrap FF, Sephacryl S-200 size exclusion); not shown: His6, C-terminal, kept
stoichiometry N: 2
